Reference: patent US20120039802A1 (published 2012)
fluorescein = fluorescein label on the side chain of the C-terminal Lys

How the values were obtained:
[1] = target: T1, cMet-Fc fusion protein (extracellular domain of the cMet receptor expressed as an Fc-fusion protein) (human, UniProt P08581 25-932); test: fluorescence polarization, 20 nM fluorescein peptide, cMet-Fc varied
T1 construct: extracellular domain; also called soluble cMet-Fc-fusion protein; soluble cMet receptor; not shown: Fc part
Method: (§1) Fluorescence anisotropy measurements were performed in 384-well microplates in a volume of 10 μL in binding buffer (PBS, 0.01% Tween-20, pH 7.5) using a Tecan Polarion fluorescence polarization plate reader ([…]). […] Binding mixtures were equilibrated for 10 minutes in the microplate at 30 C before measurement. The observed change in anisotropy was fit to the equation below via nonlinear regression to obtain the apparent KD. This equation (1) assumes that the synthetic peptide and cMet form a reversible complex in solution with 1:1 stoichiometry.

mouse cMet [2] = target: T2, mouse cMet (mouse, UniProt P16056 25-931, limits assumed); test: fluorescence polarization
T2 construct: Construct not described; also called Kd (mouse) target

mouse cMet [3] = target: T2, mouse cMet; test: fluorescence polarization, mouse target
Method: as §1

T2 sequence (P16056 25-931 limits assumed): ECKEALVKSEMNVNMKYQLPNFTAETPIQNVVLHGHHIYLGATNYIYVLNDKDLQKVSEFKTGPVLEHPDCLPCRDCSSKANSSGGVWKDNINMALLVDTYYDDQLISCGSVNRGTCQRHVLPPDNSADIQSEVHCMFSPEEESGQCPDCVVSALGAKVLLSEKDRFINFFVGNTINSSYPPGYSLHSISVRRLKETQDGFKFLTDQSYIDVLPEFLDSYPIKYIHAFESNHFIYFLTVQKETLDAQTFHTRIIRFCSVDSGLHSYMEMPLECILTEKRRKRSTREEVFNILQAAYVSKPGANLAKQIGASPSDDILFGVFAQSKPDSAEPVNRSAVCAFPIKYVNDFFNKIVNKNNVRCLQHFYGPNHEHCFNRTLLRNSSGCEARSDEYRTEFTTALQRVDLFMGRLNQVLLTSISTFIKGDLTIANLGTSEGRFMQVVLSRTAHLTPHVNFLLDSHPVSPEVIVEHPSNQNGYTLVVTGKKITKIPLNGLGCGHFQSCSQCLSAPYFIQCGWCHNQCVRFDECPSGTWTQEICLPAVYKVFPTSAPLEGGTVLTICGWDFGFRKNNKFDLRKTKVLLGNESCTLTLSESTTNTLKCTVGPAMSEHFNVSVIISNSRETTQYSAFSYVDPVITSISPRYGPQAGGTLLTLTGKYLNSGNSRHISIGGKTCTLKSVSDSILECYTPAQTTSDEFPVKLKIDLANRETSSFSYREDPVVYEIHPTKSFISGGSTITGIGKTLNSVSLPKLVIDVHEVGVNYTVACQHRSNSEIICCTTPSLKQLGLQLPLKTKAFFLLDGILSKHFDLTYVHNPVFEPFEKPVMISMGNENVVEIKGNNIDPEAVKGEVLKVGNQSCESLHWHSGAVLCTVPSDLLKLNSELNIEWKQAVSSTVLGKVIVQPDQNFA
T1 sequence (P08581 25-932): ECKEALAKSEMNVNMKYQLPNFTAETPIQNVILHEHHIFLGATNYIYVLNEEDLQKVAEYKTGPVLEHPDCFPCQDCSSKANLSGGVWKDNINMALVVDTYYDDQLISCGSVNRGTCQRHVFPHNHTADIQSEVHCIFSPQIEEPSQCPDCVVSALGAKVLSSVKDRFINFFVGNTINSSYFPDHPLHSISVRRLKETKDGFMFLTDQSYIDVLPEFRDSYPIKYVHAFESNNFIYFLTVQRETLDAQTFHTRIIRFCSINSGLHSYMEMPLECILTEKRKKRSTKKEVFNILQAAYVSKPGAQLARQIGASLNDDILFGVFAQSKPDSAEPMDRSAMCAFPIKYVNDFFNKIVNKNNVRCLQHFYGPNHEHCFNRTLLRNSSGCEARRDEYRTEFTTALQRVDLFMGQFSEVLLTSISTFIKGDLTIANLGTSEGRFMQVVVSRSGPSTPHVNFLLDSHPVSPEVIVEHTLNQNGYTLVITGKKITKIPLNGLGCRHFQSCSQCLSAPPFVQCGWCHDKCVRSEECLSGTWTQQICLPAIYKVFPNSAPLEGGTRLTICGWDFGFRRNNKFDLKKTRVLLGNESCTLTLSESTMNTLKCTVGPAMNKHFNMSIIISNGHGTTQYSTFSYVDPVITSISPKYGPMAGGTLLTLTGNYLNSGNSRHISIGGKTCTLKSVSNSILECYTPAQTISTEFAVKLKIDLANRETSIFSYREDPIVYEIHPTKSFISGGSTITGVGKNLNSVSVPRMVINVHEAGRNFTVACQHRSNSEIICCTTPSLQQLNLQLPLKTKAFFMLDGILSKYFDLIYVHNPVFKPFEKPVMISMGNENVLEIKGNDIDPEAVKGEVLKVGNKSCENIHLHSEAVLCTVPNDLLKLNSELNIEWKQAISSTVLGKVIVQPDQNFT

Kd [1] [nM]	binding result (mouse cMet [2])	Kd (mouse cMet [3]) [nM]	Binder
1150	no binding	–	Ac-GDYSECFFEPDSFEVKCYDRDPGGGK(fluorescein)-NH2 (cysteine pairing not given here) [545-H12 synthetic fluorescein-labeled peptide (SEQ ID NO: 399)]
–	no binding	–	Ac-GSPEMCMMFPFLYPCNHHAPGGGK(fluorescein)-NH2 (cysteine pairing not given here) [548-F07 synthetic fluorescein-labeled peptide (SEQ ID NO: 369)]
2600	–	7650	Ac-AQEWEREYFVDGFWGSWFGIPHGGGK(fluorescein)-NH2 [130-E10 synthetic fluorescein-labeled peptide (SEQ ID NO: 472)]
220	no binding	–	Ac-GSFFPCWRIDRFGYCHANAPGGGK(fluorescein)-NH2 (cysteine pairing not given here) [551-H10 synthetic fluorescein-labeled peptide (SEQ ID NO: 370)]
